Source: publication PMC8347774, “Construction of Fluorescent Immunosensor Quenchbody to Detect His-Tagged Recombinant Proteins Produced in Bioprocess” (Sensors (Basel, Switzerland), 2021)
Read-outs that look alike come from different tables or passages of the source. The star is where a group is joined. Biotin = O=C1N[C@H]2[C@H](CS[C@H]2CCCCC(=O)*)N1

T1: biotinylated His6 peptide (bio-EGGGSHHHHHH-COOH) (synthetic peptide, SMILES …)
T1 construct: spacer EGGGS and His6; Held on streptavidin biosensors by its biotin; source: synthetic peptide (PSSM-8 peptide synthesizer)
T1 chain: Biotin-EGGGSHHHHHH-OH

T2: His6 peptide (antigen of the fluorescence assays) (synthetic peptide)
T2 construct: His6; The materials name only the biotinylated His6 peptide as synthesised; it may be the same peptide as m17
T2 chain: HHHHHH


Columns and labels:
[1] = biological target: T1, biotinylated His6 peptide …; experiment: BLI; biotinylated His6 peptide (100 nM) loaded on streptavidin biosensors; unlabeled protein or Q-body in two-fold dilutions in Kinetic buffer (phosphate, 150 mM NaCl, 0.002% Tween20, 0.1% BSA, pH 7.4); global fit, 1:1 model; Octet K2
[2] = biological target: T2, His6 peptide (antigen of the …); experiment: other fluorescence titration; Q-body de-quenching in solution with His6 peptide at varied concentrations, PBST, plate reader; EC50 from a four-parameter logistic fit; conditions: both partners purified
[3] = biological target: anti-SARS-CoV-2 VHH nanobody tagged with a hinge, 3xFLAG and C-terminal His tags; experiment: other fluorescence titration

Row | Binder | Kd [1] [nM] | koff [1] [s⁻¹] | kon [1] [M⁻¹ s⁻¹] | Kd ([1]; both partners purified) [nM] | koff ([1]; both partners purified) [s⁻¹] | kon ([1]; both partners purified) [M⁻¹ s⁻¹] | EC50 [2] [nM] | EC50 [3] [nM] | Kd ([1]; record 2) [nM]
1 | 5-TAMRA C6 maleimide double-labeled wild-type Fab 3D5 Q-body (Fab, V domains shown, VH of antibody 3D5, as in m7; CH1 of the vector pUQ2, as in m7; VL of antibody 3D5, as the light chain of m7; CL of the vector pUQ2, as the light chain of m7; m7 labelled with two dyes; also called Wild-type TAMRA; source: E. coli SHuffle T7 Express with pGro7, purified (Talon IMAC), labelled, purified (anti-FLAG M2 beads, G-25); not shown: Cys-tag, N-terminal, kept; His6, C-terminal, kept; myc, …) VH: QVQLQQSGPEDVKPGASVKISCKASGYTFTDYYMNWVKQSPGKGLEWIGDINPNNGGTSYNQKFKGRATLTVDKSSSTAYMELRSLTSEDSSVYYCESQSGAYWGQGTTVTVSA VL: DILMTQTPSSLPVSLGDQASISCRSSQSIVHSNGNTYLEWYLQKPGQSPKLLIYKVSNRFSGVPDRFSGSGSGTDFTLKISRVEAEDLGVYYCFQGSHVPFTFGSGTKLEIK |  |  |  | 3.19 | 0.000672 | 210000 | 132000 ± 34000 |  | 
2 | 5-TAMRA C6 maleimide-labeled wild-type scFv 3D5 Q-body (scFv, V domains shown, VH of antibody 3D5, as in m1; linker between VH and VL, as in m1; VL of antibody 3D5, as in m1; m1 labelled with one dye; also called wild-type scFv Q-body; source: E. coli SHuffle T7 Express with pGro7, purified (Talon IMAC), labelled, purified (anti-FLAG M2 beads, G-25); not shown: Cys-tag, N-terminal, kept; His6, C-terminal, kept; FLAG, C-terminal, kept) VH: QVQLQQSGPEDVKPGASVKISCKASGYTFTDYYMNWVKQSPGKGLEWIGDINPNNGGTSYNQKFKGRATLTVDKSSSTAYMELRSLTSEDSSVYYCESQSGAYWGQGTTVTVSA VL: DILMTQTPSSLPVSLGDQASISCRSSQSIVHSNGNTYLEWYLQKPGQSPKLLIYKVSNRFSGVPDRFSGSGSGTDFTLKISRVEAEDLGVYYCFQGSHVPFTFGSGTKLEIK |  |  |  | 26.8 | 0.00303 | 113000 |  |  | 
3 | 5-TAMRA C6 maleimide double-labeled YW Fab 3D5 Q-body (Fab, V domains shown, VH of antibody 3D5, as the VH of m7 with the stated change; numbers count on: Kabat numbering of the heavy chain; CH1 of the vector pUQ2, as in m7; VL of antibody 3D5, as the light chain of m7; CL of the vector pUQ2, as the light chain of m7; m9 labelled with two dyes; also called YW TAMRA; source: E. coli SHuffle T7 Express with pGro7, purified (Talon IMAC), labelled, purified (anti-FLAG M2 …)) VH: QVQLQQSGPEDVKPGASVKISCKASGYTFTDYWMNWVKQSPGKGLEWIGDINPNNGGTSYNQKFKGRATLTVDKSSSTAYMELRSLTSEDSSVYYCESQSGAYWGQGTTVTVSA VL: DILMTQTPSSLPVSLGDQASISCRSSQSIVHSNGNTYLEWYLQKPGQSPKLLIYKVSNRFSGVPDRFSGSGSGTDFTLKISRVEAEDLGVYYCFQGSHVPFTFGSGTKLEIK |  |  |  | 1.31 | 0.000512 | 392000 | 54700 ± 9500 | 11100 | 
4 | 5-TAMRA C6 maleimide double-labeled WW Fab 3D5 Q-body (Fab, V domains shown, VH of antibody 3D5, as the VH of m7 with the stated changes; numbers count on: Kabat numbering of the heavy chain; CH1 of the vector pUQ2, as in m7; VL of antibody 3D5, as the light chain of m7; CL of the vector pUQ2, as the light chain of m7; m8 labelled with two dyes; also called WW TAMRA; source: E. coli SHuffle T7 Express with pGro7, purified (Talon IMAC), labelled, purified (anti-FLAG M2 …)) VH: QVQLQQSGPEDVKPGASVKISCKASGYTFTDWWMNWVKQSPGKGLEWIGDINPNNGGTSYNQKFKGRATLTVDKSSSTAYMELRSLTSEDSSVYYCESQSGAYWGQGTTVTVSA VL: DILMTQTPSSLPVSLGDQASISCRSSQSIVHSNGNTYLEWYLQKPGQSPKLLIYKVSNRFSGVPDRFSGSGSGTDFTLKISRVEAEDLGVYYCFQGSHVPFTFGSGTKLEIK | 1.72 | 0.000455 | 264000 |  |  |  | 89500 ± 25400 | 11500 | 3.19
5 | ATTO520-C2 maleimide double-labeled WW Fab 3D5 Q-body (Fab, V domains shown, VH of antibody 3D5, as the VH of m7 with the stated changes; numbers count on: Kabat numbering of the heavy chain; CH1 of the vector pUQ2, as in m7; VL of antibody 3D5, as the light chain of m7; CL of the vector pUQ2, as the light chain of m7; m8 labelled with two ATTO520 dyes; also called WW ATTO520; WW-ATTO520; source: E. coli SHuffle T7 Express with pGro7, purified (Talon IMAC), labelled, …) VH: QVQLQQSGPEDVKPGASVKISCKASGYTFTDWWMNWVKQSPGKGLEWIGDINPNNGGTSYNQKFKGRATLTVDKSSSTAYMELRSLTSEDSSVYYCESQSGAYWGQGTTVTVSA VL: DILMTQTPSSLPVSLGDQASISCRSSQSIVHSNGNTYLEWYLQKPGQSPKLLIYKVSNRFSGVPDRFSGSGSGTDFTLKISRVEAEDLGVYYCFQGSHVPFTFGSGTKLEIK |  |  |  |  |  |  | 8800 ± 1300 | 10700 | 
6 | ATTO520-C2 maleimide double-labeled YW Fab 3D5 Q-body (Fab, V domains shown, VH of antibody 3D5, as the VH of m7 with the stated change; numbers count on: Kabat numbering of the heavy chain; CH1 of the vector pUQ2, as in m7; VL of antibody 3D5, as the light chain of m7; CL of the vector pUQ2, as the light chain of m7; m9 labelled with two ATTO520 dyes; also called YW ATTO520; YW-ATTO520; source: E. coli SHuffle T7 Express with pGro7, purified (Talon IMAC), labelled, …) VH: QVQLQQSGPEDVKPGASVKISCKASGYTFTDYWMNWVKQSPGKGLEWIGDINPNNGGTSYNQKFKGRATLTVDKSSSTAYMELRSLTSEDSSVYYCESQSGAYWGQGTTVTVSA VL: DILMTQTPSSLPVSLGDQASISCRSSQSIVHSNGNTYLEWYLQKPGQSPKLLIYKVSNRFSGVPDRFSGSGSGTDFTLKISRVEAEDLGVYYCFQGSHVPFTFGSGTKLEIK |  |  |  |  |  |  | 6100 ± 1400 | 3000 | 

Results, then the binder that gave them:

Row | Kd [1] [nM] | koff [1] [s⁻¹] | kon [1] [M⁻¹ s⁻¹] | Kd ([1]; both partners purified) [nM] | koff ([1]; both partners purified) [s⁻¹] | kon ([1]; both partners purified) [M⁻¹ s⁻¹] | EC50 [2] [nM] | EC50 [3] [nM] | Kd ([1]; record 2) [nM] | Binder
7 | 2.88 | 0.000835 | 290000 |  |  |  |  |  |  | anti-His scFv 3D5 WW variant (scFv, V domains shown) VH: QVQLQQSGPEDVKPGASVKISCKASGYTFTDWWMNWVKQSPGKGLEWIGDINPNNGGTSYNQKFKGRATLTVDKSSSTAYMELRSLTSEDSSVYYCESQSGAYWGQGTTVTVSA VL: DILMTQTPSSLPVSLGDQASISCRSSQSIVHSNGNTYLEWYLQKPGQSPKLLIYKVSNRFSGVPDRFSGSGSGTDFTLKISRVEAEDLGVYYCFQGSHVPFTFGSGTKLEIK
8 |  |  |  | 5.03 | 0.000425 | 84500 |  |  |  | anti-His scFv 3D5 (wild-type) (scFv, V domains shown, VH of antibody 3D5 (anti-C-terminal His tag); numbers count on: Kabat numbering of the heavy chain; linker between VH and VL of the VH-VL type scFv (synthesised gene in pEX-K4J2-1KTR); VL of antibody 3D5; VH-VL order, vector pSQ (3D5); also called wild-type scFv; source: E. coli SHuffle T7 Express with pGro7, purified (Talon IMAC); not shown: Cys-tag, N-terminal, kept; His6, C-terminal, kept; …) VH: QVQLQQSGPEDVKPGASVKISCKASGYTFTDYYMNWVKQSPGKGLEWIGDINPNNGGTSYNQKFKGRATLTVDKSSSTAYMELRSLTSEDSSVYYCESQSGAYWGQGTTVTVSA VL: DILMTQTPSSLPVSLGDQASISCRSSQSIVHSNGNTYLEWYLQKPGQSPKLLIYKVSNRFSGVPDRFSGSGSGTDFTLKISRVEAEDLGVYYCFQGSHVPFTFGSGTKLEIK
9 | 0.17 | 2.27e-05 | 132000 |  |  |  |  |  |  | anti-His Fab 3D5 WW variant (Fab, V domains shown) VH: QVQLQQSGPEDVKPGASVKISCKASGYTFTDWWMNWVKQSPGKGLEWIGDINPNNGGTSYNQKFKGRATLTVDKSSSTAYMELRSLTSEDSSVYYCESQSGAYWGQGTTVTVSA VL: DILMTQTPSSLPVSLGDQASISCRSSQSIVHSNGNTYLEWYLQKPGQSPKLLIYKVSNRFSGVPDRFSGSGSGTDFTLKISRVEAEDLGVYYCFQGSHVPFTFGSGTKLEIK
10 |  |  |  | 0.76 | 0.000105 | 139000 |  |  |  | anti-His Fab 3D5 YW variant (Fab, V domains shown, VH of antibody 3D5, as the VH of m7 with the stated change; numbers count on: Kabat numbering of the heavy chain; CH1 of the vector pUQ2, as in m7; VL of antibody 3D5, as the light chain of m7; CL of the vector pUQ2, as the light chain of m7; YW read as Tyr kept at 32H and Trp at 33H; source: E. coli SHuffle T7 Express with pGro7, purified (Talon IMAC); not shown: Cys-tag, N-terminal, kept; His6, …) VH: QVQLQQSGPEDVKPGASVKISCKASGYTFTDYWMNWVKQSPGKGLEWIGDINPNNGGTSYNQKFKGRATLTVDKSSSTAYMELRSLTSEDSSVYYCESQSGAYWGQGTTVTVSA VL: DILMTQTPSSLPVSLGDQASISCRSSQSIVHSNGNTYLEWYLQKPGQSPKLLIYKVSNRFSGVPDRFSGSGSGTDFTLKISRVEAEDLGVYYCFQGSHVPFTFGSGTKLEIK
11 |  |  |  |  |  |  | 13800 ± 5100 |  |  | ATTO520-C2 maleimide double-labeled wild-type Fab 3D5 Q-body (Fab, V domains shown, VH of antibody 3D5, as in m7; CH1 of the vector pUQ2, as in m7; VL of antibody 3D5, as the light chain of m7; CL of the vector pUQ2, as the light chain of m7; m7 labelled with two ATTO520 dyes; also called Wild-type ATTO520; source: E. coli SHuffle T7 Express with pGro7, purified (Talon IMAC), labelled, purified (anti-FLAG M2 beads, G-25); not shown: Cys-tag, N-terminal, kept; His6, C-terminal, …) VH: QVQLQQSGPEDVKPGASVKISCKASGYTFTDYYMNWVKQSPGKGLEWIGDINPNNGGTSYNQKFKGRATLTVDKSSSTAYMELRSLTSEDSSVYYCESQSGAYWGQGTTVTVSA VL: DILMTQTPSSLPVSLGDQASISCRSSQSIVHSNGNTYLEWYLQKPGQSPKLLIYKVSNRFSGVPDRFSGSGSGTDFTLKISRVEAEDLGVYYCFQGSHVPFTFGSGTKLEIK
12 |  |  |  | 3.62 | 9.93e-05 | 27400 |  |  |  | anti-His Fab 3D5 (wild-type) (Fab, V domains shown, VH of antibody 3D5; numbers count on: Kabat numbering of the heavy chain; CH1 of the vector pUQ2 (Fd = VH-CH1); VL of antibody 3D5; CL of the vector pUQ2 (Lc = VL-CL); Linker-less pUQ2 (3D5): the (GGGS)4 linker between Cys-tag and VH was removed; His6 is followed by myc on the heavy chain; also called wild-type Fab; source: E. coli SHuffle T7 Express with pGro7, purified (Talon IMAC); not shown: …) VH: QVQLQQSGPEDVKPGASVKISCKASGYTFTDYYMNWVKQSPGKGLEWIGDINPNNGGTSYNQKFKGRATLTVDKSSSTAYMELRSLTSEDSSVYYCESQSGAYWGQGTTVTVSA VL: DILMTQTPSSLPVSLGDQASISCRSSQSIVHSNGNTYLEWYLQKPGQSPKLLIYKVSNRFSGVPDRFSGSGSGTDFTLKISRVEAEDLGVYYCFQGSHVPFTFGSGTKLEIK
